In patent US20170066831A1 (Janssen / Centocor, published 2017):
Like-named read-outs stand apart in the source and are kept apart here.

T1: human ST2L, full length, on cells (human, UniProt Q01638 19-556)
T1 sequence: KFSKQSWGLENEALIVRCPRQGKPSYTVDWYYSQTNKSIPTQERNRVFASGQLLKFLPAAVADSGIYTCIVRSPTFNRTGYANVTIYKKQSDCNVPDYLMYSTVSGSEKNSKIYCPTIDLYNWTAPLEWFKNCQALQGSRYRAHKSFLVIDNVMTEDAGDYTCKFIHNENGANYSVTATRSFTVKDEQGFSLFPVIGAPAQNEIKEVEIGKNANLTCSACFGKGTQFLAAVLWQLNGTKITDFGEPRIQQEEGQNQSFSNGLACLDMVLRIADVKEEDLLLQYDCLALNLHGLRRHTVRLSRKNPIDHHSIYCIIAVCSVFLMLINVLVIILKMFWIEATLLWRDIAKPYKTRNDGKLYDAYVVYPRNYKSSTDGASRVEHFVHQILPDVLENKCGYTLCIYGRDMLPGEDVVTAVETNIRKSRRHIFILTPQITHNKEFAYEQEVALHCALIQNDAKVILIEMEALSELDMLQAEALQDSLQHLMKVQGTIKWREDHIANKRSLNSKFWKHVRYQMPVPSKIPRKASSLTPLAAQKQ

T2: human ST2L extracellular domain with C-terminal His6 tag (human, UniProt Q01638 19-328)
T2 construct: also called huST2L-ECD; ST2L-ECD
T2 sequence: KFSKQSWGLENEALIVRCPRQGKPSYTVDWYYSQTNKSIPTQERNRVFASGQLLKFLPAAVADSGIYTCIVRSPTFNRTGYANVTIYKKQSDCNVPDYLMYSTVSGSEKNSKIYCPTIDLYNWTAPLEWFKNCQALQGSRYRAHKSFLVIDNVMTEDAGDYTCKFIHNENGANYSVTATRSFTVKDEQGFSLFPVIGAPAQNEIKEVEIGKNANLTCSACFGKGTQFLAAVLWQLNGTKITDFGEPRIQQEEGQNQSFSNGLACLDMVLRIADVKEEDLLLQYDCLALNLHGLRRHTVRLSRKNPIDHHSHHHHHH

T3: cynomolgus (Macaca fascicularis) ST2L extracellular domain with C-terminal His6 tag (Macaca fascicularis (cynomolgus), UniProt Q01638 19-321 (human entry))
T3 construct: also called cyno ST2L-ECD; cynoST2L-ECD
T3 chain: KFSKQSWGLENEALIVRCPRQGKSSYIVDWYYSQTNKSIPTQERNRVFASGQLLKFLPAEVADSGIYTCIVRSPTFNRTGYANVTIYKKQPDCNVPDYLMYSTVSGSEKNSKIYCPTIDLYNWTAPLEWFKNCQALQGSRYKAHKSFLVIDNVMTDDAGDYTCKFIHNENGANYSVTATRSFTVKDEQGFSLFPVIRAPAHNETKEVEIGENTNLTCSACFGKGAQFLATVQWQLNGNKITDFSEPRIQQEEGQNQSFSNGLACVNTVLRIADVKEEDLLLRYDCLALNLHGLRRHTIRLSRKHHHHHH

T4: mouse ST2L extracellular domain (mouse, UniProt P14719 28-326)
T4 construct: also called mouse ST2L-ECD; muST2L-ECD
T4 sequence: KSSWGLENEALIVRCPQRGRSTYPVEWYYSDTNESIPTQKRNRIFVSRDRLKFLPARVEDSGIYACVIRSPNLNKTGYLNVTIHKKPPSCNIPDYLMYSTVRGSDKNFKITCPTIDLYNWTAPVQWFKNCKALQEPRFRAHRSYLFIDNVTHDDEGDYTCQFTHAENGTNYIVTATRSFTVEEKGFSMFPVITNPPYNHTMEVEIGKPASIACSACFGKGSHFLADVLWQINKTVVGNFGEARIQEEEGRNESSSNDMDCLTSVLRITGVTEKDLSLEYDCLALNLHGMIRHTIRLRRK

B1: STLM231 (antibody, V domains shown)
VH: EVQLVQSGAEVKKPGATVKISCKVSAFNIKDDYMHWVQQAPGKGLEWMGRIDPAIGNTEYAEKFQGRVTITADTSTDTAYMELSSLRSEDTAVYYCATGDFYAMAYWGQGTLVTVSS
VL: DIQMTQSPSSLSASVGDRVTITCITNTDIDDVIHWYQQKPGKVPKLLIYEGNTLRPGVPSRFSGSGSGTDFTLTISSLQPEDVATYYCLQSDNMLTFGQGTKLEIK
notes: VH STLH201 + VL STLL273; also called S1LM231
B2: STLM232 (antibody, V domains shown)
VH: EVQLVQSGAEVKKPGATVKISCKVSAFNIKDDYMHWVQQAPGKGLEWMGRIDPAIGNTEYAEKFQGRVTITADTSTDTAYMELSSLRSEDTAVYYCATGDFYAMAYWGQGTLVTVSS
VL: DIQMTQSPSSLSASVGDRVTITCITNTDIDDVIHWYQQKPGKAPKLLIYEGNTLRPGVPSRFSGSGSGTDFTFTISSLQPEDIATYYCLQSDNMLTFGQGTKLEIK
notes: VH STLH201 + VL STLL272
B3: STLM15 (antibody, human IgG2, V domains shown)
VH: EVQLQESGPGLVKPSQSLSLTCTVTGFSITSDYAWNWIRQFPGSKLEWMGFISYSGDTSFNPSLKSRISVTRDTSKNQFFLQLNSVTTEDTATYYCASYDGYSFDYWGQGTTLTVSS
VL: DIVLTQSPASLAISLGQRATISCRASKSVSTSGSSYMFWYQQKPGQPPKLLIYLASNLESGVPARFSGSGSGTDFTLNIHPVEEEDAAAYYCQHSREIPYTFGGGTKLEIK
notes: Mouse hybridoma C2244 cloned into human IgG2 background (STLM15); also called C2244
B4: C2519 (antibody, V domains shown)
VH: EFQLQQSGPELVKPGASVKISCKASGYSFTDYNMNWVKQSHGKSLEWIGNINPYYGSTTYNQKFKGKATLTVDKSSNTAYMHLNSLTSEDSAVYYCAREGDTYLAWFAYWGQGTLVTVSA
VL: DVLMTQTPLSLPVSLGDQASISCRSSQSIVYSNGNTYLEWYLQKPGQSPKLLIYKVSNRFSGVPDRFSGSGSGTDFTLKISRVEAEDLGVYYCFQGSHVPPTFGGGTKLEIK
notes: Mouse hybridoma antibody; also called C2519A
B5: C2521 (antibody, V domains shown)
VH: QIQLQQSGPELVRPGTSVKISCKASGYTFLTYWMNWVKQRPGQGLEWIGQIFPASGSTYYNEMFKDKATLTVDTSSSTAYMQLSSLTSEDTAVYFCARSENIYYINFQYYFAYWGQGTTLTVSS
VL: ILLTQSPAILSVSPGERVSFSCRASQNIGTRMHWYQQRTNGSPRLLIKYASESISGIPSRFSGSGSGTDFTLTISSVESEDIADYYCQQSNTWPFTFGSGTKLEIK
notes: Mouse hybridoma antibody; also called C2521A
B6: ST2M48 (antibody, V domains shown)
VH: EVQLVQSGAEVKKPGESLKISCKGSGYSFTSYWIGWVRQMPGKGLEWMGIIYPGDSYTRYSPSFQGQVTISADKSISTAYLQWSSLKASDTAMYYCARLSGRFDYWGQGTLVTVSS
VL: EIVLTQSPATLSLSPGERATLSCRASQSVRDALAWYQQKPGQAPRLLIYFASNRATGIPARFSGSGSGTDFTLTISSLEPEDFAVYYCQQFNTWPITFGQGTKVEIK
notes: Phage-derived Fab converted to IgG
B7: ST2M49 (antibody, V domains shown)
VH: EVQLVQSGAEVKKPGESLKISCKGSGYSFTSYWIGWVRQMPGKGLEWMGIIYPGDSYTRYSPSFQGQVTISADKSISTAYLQWSSLKASDTAMYYCARIGGMFDYWGQGTLVTVSS
VL: EIVLTQSPATLSLSPGERATLSCRASQSVANALAWYQQKPGQAPRLLIYKASNRATGIPARFSGSGSGTDFTLTISSLEPEDFAVYYCQQYYGWPITFGQGTKVEIK
notes: as for B6
B8: ST2M51 (antibody, V domains shown)
VH: QVQLVQSGAEVKKPGSSVKVSCKASGGTFSSYAISWVRQAPGQGLEWMGGIIPIFGTANYAQKFQGRVTITADESTSTAYMELSSLRSEDTAVYYCARDTPQLDYWGQGTLVTVSS
VL: not shown
notes: as for B6

Tests used:
[1] = target: T1, human ST2L, full length, on cells; assay: cell-based or functional assay
[2] = target: T2, human ST2L extracellular domain with …; assay: RLB ELISA: biotinylated IL-33 on coated huST2L-ECD, antibody titrated
Method: 96-well plate was coated with 50 μl of 4 μg/ml human ST2L-ECD (amino acids 19-328 of SEQ ID NO: 1) or 2 μg/ml cyno ST2L-ECD (amino acids 19-321 of SEQ ID NO: 2) having C-terminal His₆ tag in bicarbonate buffer at 4° C. for 16 hrs. All subsequent steps were performed at room temperature. Plate was blocked with 200 μl blocking buffer, and was washed 3 times with 300 μl of wash buffer containing PBS+0.05% Tween. 30 μl of various dilutions of anti-ST2L mAbs were added to the wells and incubated for 1 hour. For human receptor-ligand binding assay 20 μl of biotinylated human IL-33 (residues 112-270 of SEQ ID NO: 3) was added at 100 ng/ml final concentration and incubated for 30 minutes. For cyno receptor-ligand binding assay 20 μl of biotinylated cyno IL-33 (residues 112-269 of SEQ ID NO: 4) was added at 200 ng/ml final concentration and incubated for 30 minutes. The plate was washed 3 times with 300 μl of wash buffer. 50 μl of 0.2 μg/ml Streptavidin-HRP (Jackson Immunoresearch) was added and incubated for 30 min. The plate was washed 3 times with 300 μl of wash buffer containing PBS+0.05% Tween. 50 μl of TMB substrate (EMD Biosciences) was added to each well. Reaction was stopped by the addition of 100 μl of 0.2N Sulfuric Acid. OD450 were measured using Envision plate reader (Perkin Elmer).

[3] = target: T2, human ST2L extracellular domain with …; assay: SPR, mAb captured, ST2L-ECD in solution
[4] = target: T3, cynomolgus (Macaca fascicularis) ST2L …; assay: SPR, mAb captured, ST2L-ECD in solution
[5] = target: T2, human ST2L extracellular domain with …; assay: MSD competition on coated ST2L-ECD; 30 nM sulfo-tag labeled C2244 Fab displaced by unlabeled competitor
Method: Competition binding assays were performed to evaluate different binding epitope groups for anti-ST2L mAbs. 5 μl (10 μg/ml) of ST2L-ECD protein was coated on MSD HighBind plate (Meso Scale Discovery, Gaithersburg, Md.) per well for 2 hr at room temperature. One-hundred and fifty microliters of 5% MSD Blocker A buffer (Meso Scale Discovery, Gaithersburg, Md.) was added to each well and incubated for 2 hr at room temperature. Plates were washed three times with 0.1 M HEPES buffer, pH 7.4, followed by the addition of the mixture of the MSD fluorescence dye (sulfo tag, NHS ester) labeled individual anti-ST2L antibody with different competitors. Labeled antibody, 10 or 30 nM, was incubated with increasing concentrations of competitor antibodies, from 1 nM to 2 or 5 μM, and then added to the designated wells in a volume of 25 μL mixture. After 2-hour incubation with gentle shaking at room temperature, plates were washed 3 times with 0.1M HEPES buffer (pH 7.4). MSD Read Buffer T was diluted with distilled water (4-fold) and dispensed at a volume of 150 μL/well and analyzed with a SECTOR Imager 6000.

[6] = target: T2, human ST2L extracellular domain with …; assay: SPR, mAb captured, ST2L-ECD in solution; remark: listed apart in the source
[7] = target: T3, cynomolgus (Macaca fascicularis) ST2L …; assay: SPR, mAb captured, ST2L-ECD in solution
[8] = target: T4, mouse ST2L extracellular domain; assay: domain binding assay
Method: Antibody binding to ST2L domain I, II and III was determined using standard capture ELISA assay using electrochemiluminescent detection format (Meso-Scale Discovery (MSD) technology). 10 μg/mL of each antibody was coated onto each well of an MSD HighBind plate (5 μL/well) for 2 hr at room temperature. […] The plate was covered with aluminum foil and incubated for 1 hr at room temperature with gentle shaking. The plate was then washed 3 times with HEPES wash buffer. MSD read buffer (150 μl) was added to each well, and the plate was then read using an MSD Sector Imager 6000.

Binder	RGA IC50 [1]	IC50 [2]	Kd [3]	koff [3]	kon [3]	Kd [4]	koff [4]	kon [4]	IC50 (read off the curve) [5]	Kd [6]	koff [6]	kon [6]	Kd [7]	koff [7]	kon [7]	binding result [8]
B1	1.1 µg/mL	0.26 µg/mL	0.046 nM	0.000913 s⁻¹	1.97e+07 M⁻¹ s⁻¹	0.172 nM	0.0143 s⁻¹	8.27e+07 M⁻¹ s⁻¹								
B2	0.15 µg/mL	0.31 µg/mL	0.025 nM	0.000449 s⁻¹	1.78e+07 M⁻¹ s⁻¹	0.08 nM	0.00797 s⁻¹	1e+08 M⁻¹ s⁻¹								
B3									~90 nM	0.042 nM	4.25e-05 s⁻¹	1.02e+06 M⁻¹ s⁻¹	0.011 nM	5.3e-05 s⁻¹	4.81e+06 M⁻¹ s⁻¹	
B4										0.18 nM	8.7e-05 s⁻¹	483000 M⁻¹ s⁻¹	44.8 nM	0.0032 s⁻¹	71400 M⁻¹ s⁻¹	
B5										0.079 nM	4.9e-05 s⁻¹	618000 M⁻¹ s⁻¹	3.71 nM	0.00166 s⁻¹	447000 M⁻¹ s⁻¹	
B6										0.056 nM	7.33e-05 s⁻¹	1.32e+06 M⁻¹ s⁻¹	0.257 nM	0.00265 s⁻¹	1.03e+07 M⁻¹ s⁻¹	binds
B7										0.101 nM	0.000161 s⁻¹	1.59e+06 M⁻¹ s⁻¹	0.266 nM	0.0124 s⁻¹	4.66e+07 M⁻¹ s⁻¹	binds
B8										0.038 nM	4.87e-05 s⁻¹	1.29e+06 M⁻¹ s⁻¹	0.076 nM	0.00336 s⁻¹	4.42e+07 M⁻¹ s⁻¹	binds
